The labels stand for the following.
B1: TRPM8-4/pAGA3: Rat TRPM8 fragment, residues I609-K1104 (end), 495 aa (protein)
chain: NAAGESEELANEYETRAVELFTECYSSDEDLAEQLLVYSCEAWGGSNCLELAVEATDQHFIAQPGVQNFLSKQWYGEISRDTKNWKIILCLFIIPLVGCGLVSFRKKPIDKHKKLLWYYVAFFTSPFVVFSWNVVFYIAFLLLFAYVLLMDFHSVPHTPELILYALVFVLFCDEVRQWYMNGVNYFTDLWNVMDTLGLFYFIAGIVFRLHSSNKSSLYSGRVIFCLDYIIFTLRLIHIFTVSRNLGPKIIMLQRMLIDVFFFLFLFAVWMVAFGVARQGILRQNEQRWRWIFRSVIYEPYLAMFGQVPSDVDSTTYDFSHCTFSGNESKPLCVELDEYNLPRFPEWITIPLVCIYMLSTNILLVNLLVAMFGYTVGIVQENNDQVWKFQRYFLVQEYCNRLNIPFPFVVFAYFYMVVKKCFKCCCKEKNTESSACCFRNEDNETLAWEGVMKENYLVKINTKANDNAEEMRHRFRQLDTKLNDLKGLLKEIANKIK
B2: TRPM8-2/pAGA3: Rat TRPM8 fragment, residues M353-T690, 337 aa (protein)
chain: MVKEKLVRFLPRTVSRLPEEEIESWIKWLKEILESPHLLTVIKMEEAGDEVVSSAISYALYKAFSTNEQDKDNWNGQLKLLLEWNQLDLASDEIFTNDRRWESADLQEVMFTALIKDRPKFVRLFLENGLNLQKFLTNEVLTELFSTHFSTLVYRNLQIAKNSYNDALLTFVWKLVANFRRSFWKEDRSSREDLDVELHDASLTTRHPLQALFIWAILQNKKELSKVIWEQTKGCTLAALGASKLLKTLAKVKNDINAAGESEELANEYETRAVELFTECYSSDEDLAEQLLVYSCEAWGGSNCLELAVEATDQHFIAQPGVQNFLSKQWYGEISRDT
B3: TRPM8-6/pAGA3: Rat TRPM8 fragment, residues M63-S352, 289 aa (protein)
chain: AMESICKCGYAQSQHIEGTQINQNEKWNYKKHTKEFPTDAFGDIQFETLGKKGKYLRLSCDTDSETLYELLTQHWHLKTPNLVISVTGGAKNFALKPRMRKIFSRLIYIAQSKGAWILTGGTHYGLMKYIGEVVRDNTISRNSEENIVAIGIAAWGMVSNRDTLIRNCDDEGHFSAQYIMDDFMRDPLYILDNNHTHLLLVDNGCHGHPTVEAKLRNQLEKYISERTSQDSNYGGKIPIVCFAQGGGRETLKAINTSVKSKIPCVVVEGSGQIADVIASLVEVEDVLTSS
B4: TRPM8-1/pAGA3: Rat TRPM8 fragment, residues M1-K432, 432 aa, in vitro translated from pAGA3 (protein)
chain: MSFEGARLSMRSRRNGTLGSTRTLYSSVSRSTDVSYSESDLVNFIQANFKKRECVFFTRDSKAMESICKCGYAQSQHIEGTQINQNEKWNYKKHTKEFPTDAFGDIQFETLGKKGKYLRLSCDTDSETLYELLTQHWHLKTPNLVISVTGGAKNFALKPRMRKIFSRLIYIAQSKGAWILTGGTHYGLMKYIGEVVRDNTISRNSEENIVAIGIAAWGMVSNRDTLIRNCDDEGHFSAQYIMDDFMRDPLYILDNNHTHLLLVDNGCHGHPTVEAKLRNQLEKYISERTSQDSNYGGKIPIVCFAQGGGRETLKAINTSVKSKIPCVVVEGSGQIADVIASLVEVEDVLTSSMVKEKLVRFLPRTVSRLPEEEIESWIKWLKEILESPHLLTVIKMEEAGDEVVSSAISYALYKAFSTNEQDKDNWNGQLKL
B5: TRPM8-7/pAGA3: Rat TRPM8 fragment, residues V145-S352, 207 aa (protein)
chain: VISVTGGAKNFALKPRMRKIFSRLIYIAQSKGAWILTGGTHYGLMKYIGEVVRDNTISRNSEENIVAIGIAAWGMVSNRDTLIRNCDDEGHFSAQYIMDDFMRDPLYILDNNHTHLLLVDNGCHGHPTVEAKLRNQLEKYISERTSQDSNYGGKIPIVCFAQGGGRETLKAINTSVKSKIPCVVVEGSGQIADVIASLVEVEDVLTSS
B6: TRPM8-8/pAGA3: Rat TRPM8 fragment, residues M219-S352, 133 aa (protein)
chain: MVSNRDTLIRNCDDEGHFSAQYIMDDFMRDPLYILDNNHTHLLLVDNGCHGHPTVEAKLRNQLEKYISERTSQDSNYGGKIPIVCFAQGGGRETLKAINTSVKSKIPCVVVEGSGQIADVIASLVEVEDVLTSS
B7: TRPM8-9/pAGA3: Rat TRPM8 fragment, residues A172-S352, 180 aa (protein)
chain: AQSKGAWILTGGTHYGLMKYIGEVVRDNTISRNSEENIVAIGIAAWGMVSNRDTLIRNCDDEGHFSAQYIMDDFMRDPLYILDNNHTHLLLVDNGCHGHPTVEAKLRNQLEKYISERTSQDSNYGGKIPIVCFAQGGGRETLKAINTSVKSKIPCVVVEGSGQIADVIASLVEVEDVLTSS
B8: TRPM8-10/pAGA3: Rat TRPM8 fragment, residues D198-S352, 154 aa (protein)
chain: DNTISRNSEENIVAIGIAAWGMVSNRDTLIRNCDDEGHFSAQYIMDDFMRDPLYILDNNHTHLLLVDNGCHGHPTVEAKLRNQLEKYISERTSQDSNYGGKIPIVCFAQGGGRETLKAINTSVKSKIPCVVVEGSGQIADVIASLVEVEDVLTSS

The target in the first test is T1, calmodulin (Rattus norvegicus, UniProt P0DP29).
T1 construct: made in house; host or cells: Escherichia coli BL21 (pGEX-4T-1 based plasmid)
Kind of test: Pull-down of 35S-methionine-labelled TRPM8 fragments on GST-CaM agarose-GSH beads, SDS/PAGE and autoradiography. Format: binding. Set-up: key to Binding (binding activity to calmodulin): (+) binding was detected; (−) no binding was detected. Conditions: TRPM8 fragments, FIG. 1 and FIG. 2. The protocol:
^35S-methionine labelled TRPM8 fragments were synthesized using TnT® T7 Quick Coupled Transcription/Translation System (Promega) following the vendor recommended protocol. Briefly, 10 μl of 0.1 μg/μl pAGA3 based TRPM8 construct (listed in Table 1) was added to 90 μl of TNT Quick Master Mix with 2 μl of [^35S]-methionine (1000 Ci/mmmol at 10 mCi/ml). The reaction mixture was incubated at 30° C. for 90 min. Aliquots of the incubation mixtures were used directly either for analysis by SDS/PAGE to confirm synthesis of proteins of the desired size or for the ability to bind to GST or GST-CaM.
The GST-CaM fusion plasmid was based on pGEX-4T-1 (Amersham Pharmacia). The CaM was fused to the C-terminus of GST. After transformation into Escherichia coli BL21, a single colony was picked and grown in brow medium to OD of 1.0 at 600 nm. The synthesis of the fusion protein was induced with 0.2 mM isopropyl β-D-thiogalactoside (IPTG). After growing 2-3 hours in the presence of IPTG at 27° C., the cells were collected by centrifugation, resuspended in NETN lysis buffer (0.5% Nonidet P-40/1 mM EDTA/20 mM Tris-HCl, pH8.0/100 mM NaCl; 1 ml of buffer per 20 ml of culture), and lysed by sonication. The cell lysate was separated from the cell debris by centrifugation at 10,000 g for 10 min at 4° C. GST-CaM in the cell lysate was adsorbed for 30 min at room temperature to agarose-glutathione (GSH) beads (Amersham Pharmacia) (1 vol. of lysates/1 vol of 50% (vol/vol) slurry of Agarose-GSH beads in NETN). The beads were washed with binding buffer (20 mM Tris-HCl, pH7.5/100 mM NaCl/2 mM CaCl2/0.5% Tween20).
Agarose-GSH beads (50% (vol./vol.)) bound with about 1 μg of GST or GST-CaM were incubated with 10 μl of ^35S-labelled TRPM8 fragment for 30 min at room temperature in a final volume of 200 μl of binding buffer. At the end of the incubation, the beads were washed three times with 1.0 ml of binding buffer and resuspended in 20 μl of 2× laemmli's sample loading buffer. Protein(s) bound to the beads, including the GST-CaM fusion protein, and possibly the ^35S-labelled TRPM8 fragment that interact with the GST-CaM fusion protein, were separated by SDS/PAGE followed by autoradiography.
In the case of B1, the “binding to CaM (result in words)” value was “not”.
Still for that read-out and setting: then B2, with “not”; and B3, with “found to bind CaM”; and B4, with “found to bind to CaM”.
Consider B5, for which the “binding to CaM (result in words)” value is given as “found to bind CaM”.

The test is the same for the next values; noted with them: rat TRPM8 constructs; binding buffer with 2 mM CaCl2, 30 min room temperature.
Turning to B6, the “Binding (binding activity to calmodulin)” value was “−”.
Still for that read-out and setting: then B1, with “−”; and B7, with “−”; and B2, with “−”.
With B3, the “Binding (binding activity to calmodulin)” value is on record as “+”.
On the same count and under the same terms, to B8 belongs “−”; to B4, “+”.
On the same count and under the same terms, to B5 belongs “+”.
